Reference: paper PMC3655159 (Journal of molecular biology, 2013)

Molecular target: the molecule itself
Assay: SDS-PAGE under mildly denaturing conditions

B1: gB730 L700G/L711G (domain or fragment)
chain: not shown
Question: How did the “stoichiometry N” value turn out when B1 was run?
Answer: The value was 3.
